# Target: human TLR5 (293-hTLR5-LacZ reporter cells) (human, UniProt O60602 21-858)
# Assay: cell-based or functional assay
# Sequence of human TLR5 (293-hTLR5-LacZ reporter cells) (O60602 21-858): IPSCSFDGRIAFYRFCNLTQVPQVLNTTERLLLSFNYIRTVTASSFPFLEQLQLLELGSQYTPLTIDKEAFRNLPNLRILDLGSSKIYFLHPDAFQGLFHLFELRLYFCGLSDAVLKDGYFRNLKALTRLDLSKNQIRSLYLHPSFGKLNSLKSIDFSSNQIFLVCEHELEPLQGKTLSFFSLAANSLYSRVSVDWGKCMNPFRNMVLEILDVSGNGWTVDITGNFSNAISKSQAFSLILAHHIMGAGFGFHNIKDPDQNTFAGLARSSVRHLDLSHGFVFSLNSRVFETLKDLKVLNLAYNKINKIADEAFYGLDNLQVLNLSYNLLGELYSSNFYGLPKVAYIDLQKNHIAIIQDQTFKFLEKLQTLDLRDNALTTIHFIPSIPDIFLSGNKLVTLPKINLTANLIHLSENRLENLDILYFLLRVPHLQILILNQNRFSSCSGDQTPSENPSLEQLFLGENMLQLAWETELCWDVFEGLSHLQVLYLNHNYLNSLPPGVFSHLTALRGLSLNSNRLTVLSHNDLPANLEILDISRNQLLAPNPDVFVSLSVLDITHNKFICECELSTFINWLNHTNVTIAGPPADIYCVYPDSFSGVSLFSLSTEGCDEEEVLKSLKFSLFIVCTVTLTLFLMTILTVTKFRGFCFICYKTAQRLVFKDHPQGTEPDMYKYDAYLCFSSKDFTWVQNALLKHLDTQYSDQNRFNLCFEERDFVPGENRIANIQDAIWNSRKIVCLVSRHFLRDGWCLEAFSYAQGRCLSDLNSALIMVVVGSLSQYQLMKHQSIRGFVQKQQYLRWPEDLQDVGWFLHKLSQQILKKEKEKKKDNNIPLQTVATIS
binder,measurement,value
entolimod/CBLB502 (ligand) not shown,"EC50, ng/ml (NF-κB reporter enzyme activity)",0.032 ng/mL
same,"EC50, pM (NF-κB reporter enzyme activity)",0.92 pM

# From patent US20220024991A1 (GENOME PROTECTION, published 2022)
